As usually defined, the stoichiometry N is a count of units in the complex or per binding partner.

Data set [1] deals with T1, PgMntR (Porphyromonas gingivalis W50 (W83 locus PG1044)) (UniProt Q7MVL0).
T1 sequence: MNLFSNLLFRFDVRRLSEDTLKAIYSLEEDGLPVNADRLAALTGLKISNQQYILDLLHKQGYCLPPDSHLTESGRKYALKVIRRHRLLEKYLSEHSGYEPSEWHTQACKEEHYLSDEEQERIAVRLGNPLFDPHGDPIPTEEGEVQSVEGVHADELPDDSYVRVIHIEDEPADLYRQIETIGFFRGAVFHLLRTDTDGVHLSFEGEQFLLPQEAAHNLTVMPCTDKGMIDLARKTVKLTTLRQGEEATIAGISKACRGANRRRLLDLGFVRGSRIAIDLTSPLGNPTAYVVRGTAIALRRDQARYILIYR
The experiment in a line: EMSA. The settings on record: EMSA: 1 nM biotinylated DNA, 700-1000 nM protein, 90 mM Bis-Tris borate pH 6.8 (1 mM TCEP, 5 mM DTT) or 10 mM Tris-Cl pH 7.5 or Tris-acetate pH 6.8, 50 mM KCl …. (In general: A gel shift assay detects complexes by their altered migration in electrophoresis.)

The target of data set [2] is PgMntR 4Ala variant (D19A/C108A/E111A/H112A) (Porphyromonas gingivalis W50). The experiment in a line: AUC; sedimentation velocity; 10 or 60 uM protein in TBS (50 mM Tris-Cl, 150 mM NaCl, pH 7.5), 20 C, 40,000 rpm; without divalent metal, also with Mn2+ and with 2 mM TCEP; c(s) fit in SEDFIT.
For data set [3], the target named is PgMntR (Porphyromonas gingivalis manganese transport regulator orthologue, PG1044), recombinant wild type (Porphyromonas gingivalis W50). The description is as above.
The target in data set [4] is PgMntR C108E variant (Porphyromonas gingivalis W50). Described as above.
For data set [5], the target named is PgMntR D19M variant (Porphyromonas gingivalis W50). The description is as above.
For data set [6], the target named is PgMntR ΔFeoA2 (PgMntR without the final C-terminal FeoA domain) (Porphyromonas gingivalis W50). The data set is described as above.

Turning to “GATAGCGCAAAAATACTAACTAAACCAATGAATAAACGAGAAATACAATTTATTATTAAAGAGACTGTTGCACAATAACCCTCTCCCCCTCTCATATTGATCAAGACAGACACAAGCATTGATTTGACGAAGAAAGGAGAGCTTCATGCAATCTCTCTGCAAACCTCAAGTAATCTGAAAAACACTTAAGAATCAGCTCTGCGGCAAAAGACTTCAATGAAAGTCCTATAAAATAGTTGCAAACAGCTGATAGTTAGCGCATTGATGGGAGC (double strand) [FB1p (feoB1 promoter)]”, the binding entry in data set [1] is “no binding”.
As to “PgMntR 4Ala variant (D19A/C108A/E111A/H112A) (natural protein)”, in data set [2], the stoichiometry N was 2.
“PgMntR (Porphyromonas gingivalis manganese transport regulator orthologue, PG1044), recombinant wild type (natural protein)”: in data set [3], the stoichiometry N was found to be 2.
PgMntR C108E variant (natural protein): the stoichiometry N in data set [4] came out at 2.
For the substance PgMntR D19M variant (natural protein), the stoichiometry N in data set [5] stood at 2.
Take “PgMntR ΔFeoA2 (PgMntR without the final C-terminal FeoA domain) (domain or fragment)”: the stoichiometry N in data set [6] turned out to be 2.
